For data set [1], the system named is HeLa Kyoto. Put plainly: solubility change mitosis vs G1/S (difference of NP-40 vs SDS log2 ratios) (log2 ratio difference); higher = more soluble in mitosis.
Data set [2] concerns HeLa Kyoto. Briefly: solubility in G1/S (NP-40 vs SDS abundance) (log2 ratio); higher = more soluble. The note with it: cell cycle stage: G1/S.
The subject of data set [3] is HeLa Kyoto. Put plainly: melting temperature (median over replicates), in situ; higher = more thermally stable.
For data set [4], the system named is HeLa Kyoto. Briefly: thermal stability score vs G1/S (z-score of summed log2 fold changes over temperatures); higher = more thermally stable than in G1/S.
[5] abbreviates: cell cycle stage: early G1 (4.5 h after nocodazole release).
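Throughout, for melting temperature (median over replicates), in situ: HeLa Kyoto cells synchronized by double thymidine or nocodazole block, proteins quantified by TMT10plex mass spectrometry, three independent biological replicates.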
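Throughout, for solubility change mitosis vs G1/S (difference of NP-40 vs SDS log2 ratios): synchronized HeLa Kyoto cells (double thymidine block for G1/S, nocodazole release for mitosis), protein amounts in NP-40 versus SDS lysates quantified by mass spectrometry, three biological replicates.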
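Throughout, for solubility in G1/S (NP-40 vs SDS abundance): HeLa Kyoto cells arrested at G1/S by double thymidine block, proteins quantified by TMT10plex mass spectrometry in mild NP-40 versus SDS extracts, three biological replicates.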
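Throughout, for thermal stability score vs G1/S (z-score of summed log2 fold changes over temperatures): synchronized HeLa Kyoto cells, proteins quantified by TMT10plex mass spectrometry, three biological replicates, mitosis taken 0.5 h after nocodazole release, G1/S directly after double thymidine block.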

On to “MMEDDGQPRTLYVGNLSRDVTEVLILQLFSQIGPCKSCKMITEHTSNDPYCFVEFYEHRDAAAALAAMNGRKILGKEVKVNWATTPSSQKKDTSNHFHVFVGDLSPEITTEDIKSAFAPFGKISDARVVKDMATGKSKGYGFVSFYNKLDAENAIVHMGGQWLGGRQIRTNWATRKPPAPKSTQENNTKQLRFEDVVNQSSPKNCTVYCGGIASGLTDQLMRQTFSPFGQIMEIRVFPEKGYSFVRFSTHESAAHAIVSVNGTTIEGHVVKCYWGKESPDMTKNFQQVDYSQWGQWSQVYGNPQQYGQYMANGWQVPPYGVYGQPWNQQGFGVDQSPSAAWMGGFGAQPPQGQAPPPVIPPPNQAGYGMASYQTQ [TIAL1]”, for which the “solubility change mitosis (log2)” value in data set [1] is -0.0732. For the same sequence, the “solubility in G1/S (log2)” value in data set [2] came to 0.13. For the same sequence, the melting temperature in data set [3] (cell cycle stage: G1/S) turned out to be 52.3 °C; in data set [3] (cell cycle stage: mitosis), 52 °C. The thermal stability score was -1.16 in data set [4] (setting [5]) and -2.29 in data set [4] (cell cycle stage: mitosis).

For the sequence “MMEERAAAAVAAAASSCRPLGSGAGPGPTGAAPVSAPAPGPGPAGKGGGGGGSPGPTAGPEPLSLPGILHFIQHEWARFEAEKARWEAERAELQAQVAFLQGERKGQENLKTDLVRRIKMLEYALKQERAKYHKLKFGTDLNQGEKKADVSEQVSNGPVESVTLENSPLVWKEGRQLLRQYLEEVGYTDTILDMRSKRVRSLLGRSLELNGAVEPSEGAPRAPPGPAGLSGGESLLVKQIEEQIKRNAAGKDGKERLGGSVLGQIPFLQNCEDEDSDEDDELDSVQHKKQRVKLPSKALVPEMEDEDEEDDSEDAINEFDFLGSGEDGEGAPDPRRCTVDGSPHELESRRVKLQGILADLRDVDGLPPKVTGPPPGTPQPRPHEDVFIMDTIGGGEVSLGDLADLTVTNDNDLSCDLSDSKDAFKKTWNPKFTLRSHYDGIRSLAFHHSQSALLTASEDGTLKLWNLQKAVTAKKNAALDVEPIHAFRAHRGPVLAVAMGSNSEYCYSGGADACIHSWKIPDLSMDPYDGYDPSVLSHVLEGHGDAVWGLAFSPTSQRLASCSADGTVRIWDPSSSSPACLCTFPTASEHGVPTSVAFTSTEPAHIVASFRSGDTVLYDMEVGSALLTLESRGSSGPTQINQVVSHPNQPLTITAHDDRGIRFLDNRTGKPVHSMVAHLDAVTCLAVDPNGAFLMSGSHDCSLRLWSLDNKTCVQEITAHRKKHEEAIHAVACHPSKALIASAGADALAKVFV [STRN4]”, the “solubility change mitosis (log2)” value in data set [1] is -0.085. Further, in data set [2], the “solubility in G1/S (log2)” value was 0.104. In addition, the results for the melting temperature in data set [3] (cell cycle stage: G1/S) and in data set [3] (cell cycle stage: mitosis) were 50.6 °C and 50.4 °C, respectively. Moreover, the thermal stability score in data set [4] (setting [5]) is 0.143; in data set [4] (cell cycle stage: mitosis), 0.0318.

On to “MMGLGNGRRSMKSPPLVLAALVACIIVLGFNYWIASSRSVDLQTRIMELEGRVRRAAAERGAVELKKNEFQGELEKQREQLDKIQSSHNFQLESVNKLYQDEKAVLVNNITTGERLIRVLQDQLKTLQRNYGRLQQDVLQFQKNQTNLERKFSYDLSQCINQMKEVKEQCEERIEEVTKKGNEAVASRDLSENNDQRQQLQALSEPQPRLQAAGLPHTEVPQGKGNVLGNSKSQTPAPSSEVVLDSKRQVEKEETNEIQVVNEEPQRDRLPQEPGREQVVEDRPVGGRGFGGAGELGQTPQVQAALSVSQENPEMEGPERDQLVIPDGQEEEQEAAGEGRNQQKLRGEDDYNMDENEAESETDKQAALAGNDRNIDVFNVEDQKRDTINLLDQREKRNHTL [GOLM1]”, for which the “solubility change mitosis (log2)” value in data set [1] turned out to be 0.556. Besides, the “solubility in G1/S (log2)” value in data set [2] was -0.0257. Also, the melting temperature stood at 55.9 °C in data set [3] (cell cycle stage: G1/S) and 59.3 °C in data set [3] (cell cycle stage: mitosis). The thermal stability score is -2.29 in data set [4] (setting [5]) and -1.82 in data set [4] (cell cycle stage: mitosis).

As to “MMKLRHKNKKPGEGSKGHKKISWPYPQPAKQNGKKATSKVPSAPHFVHPNDHANREAELKKKWVEEMREKQQAAREQERQKRRTIESYCQDVLRRQEEFEHKEEVLQELNMFPQLDDEATRKAYYKEFRKVVEYSDVILEVLDARDPLGCRCFQMEEAVLRAQGNKKLVLVLNKIDLVPKEVVEKWLDYLRNELPTVAFKASTQHQVKNLNRCSVPVDQASESLLKSKACFGAENLMRVLGNYCRLGEVRTHIRVGVVGLPNVGKSSLINSLKRSRACSVGAVPGITKFMQEVYLDKFIRLLDAPGIVPGPNSEVGTILRNCVHVQKLADPVTPVETILQRCNLEEISNYYGVSGFQTTEHFLTAVAHRLGKKKKGGLYSQEQAAKAVLADWVSGKISFYIPPPATHTLPTHLSAEIVKEMTEVFDIEDTEQANEDTMECLATGESDELLGDTDPLEMEIKLLHSPMTKIADAIENKTTVYKIGDLTGYCTNPNRHQMGWAKRNVDHRPKSNSMVDVCSVDRRSVLQRIMETDPLQQGQALASALKNKKKMQKRADKIASKLSDSMMSALDLSGNADDGVGD [GNL3L]”, the “solubility change mitosis (log2)” value in data set [1] came to 0.334. In data set [2], the “solubility in G1/S (log2)” value is -0.846. The melting temperature in data set [3] (cell cycle stage: G1/S) worked out at 48.1 °C; in data set [3] (cell cycle stage: mitosis), 50.3 °C. Also, the thermal stability score in data set [4] (setting [5]) amounted to 3.18; in data set [4] (cell cycle stage: mitosis), 4.42.

For “MMLRGNLKQVRIEKNPARLRALESAVGESEPAAAAAMALALAGEPAPPAPAPPEDHPDEEMGFTIDIKSFLKPGEKTYTQRCRLFVGNLPTDITEEDFKRLFERYGEPSEVFINRDRGFGFIRLESRTLAEIAKAELDGTILKSRPLRIRFATHGAALTVKNLSPVVSNELLEQAFSQFGPVEKAVVVVDDRGRATGKGFVEFAAKPPARKALERCGDGAFLLTTTPRPVIVEPMEQFDDEDGLPEKLMQKTQQYHKEREQPPRFAQPGTFEFEYASRWKALDEMEKQQREQVDRNIREAKEKLEAEMEAARHEHQLMLMRQDLMRRQEELRRLEELRNQELQKRKQIQLRHEEEHRRREEEMIRHREQEELRRQQEGFKPNYMENREQEMRMGDMGPRGAINMGDAFSPAPAGNQGPPPMMGMNMNNRATIPGPPMGPGPAMGPEGAANMGTPMMPDNGAVHNDRFPQGPPSQMGSPMGSRTGSETPQAPMSGVGPVSGGPGGFGRGSQGGNFEGPNKRRRY [PSPC1]”, the “solubility change mitosis (log2)” value in data set [1] came to 0.177. Moreover, the “solubility in G1/S (log2)” value in data set [2] came to 0.205. Moreover, the melting temperature in data set [3] (cell cycle stage: G1/S) was 49.1 °C; in data set [3] (cell cycle stage: mitosis), 48.7 °C. For the same sequence, the figures for the thermal stability score in data set [4] (setting [5]) and in data set [4] (cell cycle stage: mitosis) were 1 and 1.79, respectively.
